Measured values reported in publication PMC10536698.

Test system: CcpA (Streptococcus agalactiae GD201008-001), ORF:5b4dc1e2
Test: EMSA
Conditions: EMSA: 20 mM Tris-HCl pH 7.5, 30 mM KCl, 1 mM DTT, 1 mM EDTA, 10% glycerol, 20 uL, 30 min at 37 C; 10% PAGE in 0.5x TBE on ice

AAGTTTTCTCCTTTTGTATTACATTCTAGAGACTAAAGGAGATGTTGAAAATTTCTCCTAATCCCTTTAAATAACATTCTAATCATATCATAAATGTCTATAATTTTAAATTGTGAAAACGCCTTTTTTATGATAAACTTAAAAGTGGACTTTCTATATGAAATCTAGAAAAAAATTGAGGTATAAAC (double strand) [luxS promoter]
binding: binds

AGTATTTGTAAAAGCTAATCTTTAGATTAGGCTTTTTTAGTTTATTGATAGTTTTTGGAAGAAAATGCTTGACATTGAAAGAAAAAGAGATATAATTAAATTGCAAACGATTTCAATTCAAGGAGGGAC (double strand) [fruRKI promoter]
binding: binds
